{"source": "paper PMC5499739", "about": "“An RRM–ZnF RNA recognition module targets RBM10 to exonic sequences to promote exon exclusion”", "key": {"[1]": {"target": "T1, RBM10 RRM1-ZnF (Homo sapiens) (UniProt P98175)", "T1 sequence": "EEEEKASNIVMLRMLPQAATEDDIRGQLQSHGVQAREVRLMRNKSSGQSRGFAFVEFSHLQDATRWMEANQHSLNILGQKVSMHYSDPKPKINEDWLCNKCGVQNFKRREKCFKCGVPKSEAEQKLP", "experiment": "pulldown", "settings": "20 nM protein; 20 mM Hepes pH 7.8, 80 mM KCl, 20 mM NaCl, 10% glycerol, 2 mM DTT; 4 C"}, "[2]": {"target": "T2, RBM10 RRM1-ZnF-RRM2 (Homo sapiens) (UniProt P98175)", "T2 sequence": "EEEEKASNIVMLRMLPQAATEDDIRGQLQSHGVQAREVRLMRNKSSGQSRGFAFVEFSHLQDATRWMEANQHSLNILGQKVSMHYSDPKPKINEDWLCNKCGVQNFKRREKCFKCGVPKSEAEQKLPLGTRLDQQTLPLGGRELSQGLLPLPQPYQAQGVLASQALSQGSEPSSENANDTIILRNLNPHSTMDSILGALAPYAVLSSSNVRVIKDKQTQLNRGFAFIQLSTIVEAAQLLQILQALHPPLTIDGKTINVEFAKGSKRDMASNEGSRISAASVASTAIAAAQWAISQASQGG", "experiment": "pulldown", "settings": "20 nM protein; 20 mM Hepes pH 7.8, 80 mM KCl, 20 mM NaCl, 10% glycerol, 2 mM DTT; 4 C"}, "[3]": {"target": "T3, RBM10 RRM1-ZnF (Homo sapiens, UniProt P98175 129-242)", "T3 sequence": "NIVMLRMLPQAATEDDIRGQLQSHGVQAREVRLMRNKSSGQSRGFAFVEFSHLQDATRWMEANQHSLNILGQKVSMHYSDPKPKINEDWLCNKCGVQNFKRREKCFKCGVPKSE", "experiment": "ITC; 10 uM ZnCl2; 10 mM sodium phosphate pH 6.9, 50 mM NaCl, 1 mM TCEP (+10 uM ZnCl2 for ZnF constructs); ITC 25 C; NMR 298 or 310 K", "settings": "protein: recombinant; tags: His6 or His6-SUMO3, cleaved with HRV 3C"}, "[4]": {"target": "T3, RBM10 RRM1-ZnF", "experiment": "ITC; 10 uM ZnCl2; 10 mM sodium phosphate pH 6.9, 50 mM NaCl, 1 mM TCEP (+10 uM ZnCl2 for ZnF constructs); ITC 25 C; NMR 298 or 310 K", "settings": "protein: recombinant; tags: His6 or His6-SUMO3, cleaved with HRV 3C", "remark": "listed apart in the source"}, "[5]": {"target": "T3, RBM10 RRM1-ZnF", "experiment": "ITC; 10 uM ZnCl2; 10 mM sodium phosphate pH 6.9, 50 mM NaCl, 1 mM TCEP (+10 uM ZnCl2 for ZnF constructs); ITC 25 C; NMR 298 or 310 K", "settings": "protein: recombinant; tags: His6 or His6-SUMO3, cleaved with HRV 3C", "remark": "listed apart in the source"}, "[6]": {"target": "T4, RBM10 RRM1-ZnF-RRM2 (Homo sapiens, UniProt P98175 129-384)", "T4 sequence": "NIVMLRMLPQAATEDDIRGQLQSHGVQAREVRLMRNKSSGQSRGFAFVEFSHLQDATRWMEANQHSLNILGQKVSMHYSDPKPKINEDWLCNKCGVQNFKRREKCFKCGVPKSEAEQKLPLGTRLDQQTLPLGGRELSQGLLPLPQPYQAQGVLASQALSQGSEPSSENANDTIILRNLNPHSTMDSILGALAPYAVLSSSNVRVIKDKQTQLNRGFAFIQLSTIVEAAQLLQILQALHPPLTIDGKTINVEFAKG", "experiment": "NMR; 10 uM ZnCl2; RRM1-ZnF slow exchange, Kd in nM range; RRM2 second weak event, Kd in uM range; 10 mM sodium phosphate pH 6.9, 50 mM NaCl, 1 mM TCEP (+10 uM ZnCl2 for ZnF constructs); ITC 25 C; NMR 298 or 310 K", "settings": "protein: recombinant; tags: His6 or His6-SUMO3, cleaved with HRV 3C"}, "[7]": {"target": "T5, RBM10 RRM2 (Homo sapiens, UniProt P98175 300-384)", "T5 sequence": "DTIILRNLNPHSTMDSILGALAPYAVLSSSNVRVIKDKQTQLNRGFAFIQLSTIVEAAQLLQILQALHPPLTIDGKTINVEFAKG", "experiment": "ITC; 10 mM sodium phosphate pH 6.9, 50 mM NaCl, 1 mM TCEP (+10 uM ZnCl2 for ZnF constructs); ITC 25 C; NMR 298 or 310 K", "settings": "protein: recombinant; tags: His6 or His6-SUMO3, cleaved with HRV 3C"}}, "data": [{"molecule": "AAAGGGU [7-mer AAAGGGU]", "values": [{"measurement": "binding signal (RNAcompete z-score)", "setting": "[1]", "result": 5}]}, {"molecule": "AAGGGUG [7-mer AAGGGUG]", "values": [{"measurement": "binding signal (RNAcompete z-score)", "setting": "[1]", "result": 5.25}, {"measurement": "binding signal (RNAcompete z-score)", "setting": "[2]", "result": 5.29}]}, {"molecule": "AGGGAAA [7-mer AGGGAAA]", "values": [{"measurement": "binding signal (RNAcompete z-score)", "setting": "[2]", "result": 4.87}]}, {"molecule": "AGUAGGG [7-mer AGUAGGG]", "values": [{"measurement": "binding signal (RNAcompete z-score)", "setting": "[2]", "result": 4.88}]}, {"molecule": "GAAAGGA [7-mer GAAAGGA]", "values": [{"measurement": "binding signal (RNAcompete z-score)", "setting": "[1]", "result": 5.87}, {"measurement": "binding signal (RNAcompete z-score)", "setting": "[2]", "result": 5.67}]}, {"molecule": "GAAAGGG [7-mer GAAAGGG]", "values": [{"measurement": "binding signal (RNAcompete z-score)", "setting": "[1]", "result": 6.04}, {"measurement": "binding signal (RNAcompete z-score)", "setting": "[2]", "result": 5.54}]}, {"molecule": "GAAAUGG [7-mer GAAAUGG]", "values": [{"measurement": "binding signal (RNAcompete z-score)", "setting": "[1]", "result": 5.03}, {"measurement": "binding signal (RNAcompete z-score)", "setting": "[2]", "result": 4.79}]}, {"molecule": "GAAGGGG [7-mer GAAGGGG]", "values": [{"measurement": "binding signal (RNAcompete z-score)", "setting": "[1]", "result": 5.25}, {"measurement": "binding signal (RNAcompete z-score)", "setting": "[2]", "result": 4.83}]}, {"molecule": "GAGUGGG [7-mer GAGUGGG]", "values": [{"measurement": "binding signal (RNAcompete z-score)", "setting": "[1]", "result": 4.99}, {"measurement": "binding signal (RNAcompete z-score)", "setting": "[2]", "result": 4.9}]}, {"molecule": "GGAAAGG [7-mer GGAAAGG]", "values": [{"measurement": "binding signal (RNAcompete z-score)", "setting": "[1]", "result": 6.53}, {"measurement": "binding signal (RNAcompete z-score)", "setting": "[2]", "result": 6.43}]}, {"molecule": "GGAAGGG [7-mer GGAAGGG]", "values": [{"measurement": "binding signal (RNAcompete z-score)", "setting": "[1]", "result": 6}, {"measurement": "binding signal (RNAcompete z-score)", "setting": "[2]", "result": 5.56}]}, {"molecule": "GGAUGGG [7-mer GGAUGGG]", "values": [{"measurement": "binding signal (RNAcompete z-score)", "setting": "[1]", "result": 5.66}, {"measurement": "binding signal (RNAcompete z-score)", "setting": "[2]", "result": 4.83}]}, {"molecule": "GGGAAGG [7-mer GGGAAGG]", "values": [{"measurement": "binding signal (RNAcompete z-score)", "setting": "[1]", "result": 5.91}, {"measurement": "binding signal (RNAcompete z-score)", "setting": "[2]", "result": 5.54}]}, {"molecule": "GGGAUGG [7-mer GGGAUGG]", "values": [{"measurement": "binding signal (RNAcompete z-score)", "setting": "[1]", "result": 5.71}, {"measurement": "binding signal (RNAcompete z-score)", "setting": "[2]", "result": 5.12}]}, {"molecule": "GGUAAGG [7-mer GGUAAGG]", "values": [{"measurement": "binding signal (RNAcompete z-score)", "setting": "[1]", "result": 4.97}, {"measurement": "binding signal (RNAcompete z-score)", "setting": "[2]", "result": 4.92}]}, {"molecule": "GGUAGGG [7-mer GGUAGGG]", "values": [{"measurement": "binding signal (RNAcompete z-score)", "setting": "[2]", "result": 4.79}]}, {"molecule": "GGUGGGG [7-mer GGUGGGG]", "values": [{"measurement": "binding signal (RNAcompete z-score)", "setting": "[1]", "result": 5.21}]}, {"molecule": "GGUUGGG [7-mer GGUUGGG]", "values": [{"measurement": "binding signal (RNAcompete z-score)", "setting": "[1]", "result": 5.27}]}, {"molecule": "CAGUGGA (ssRNA)", "values": [{"measurement": "binding signal", "setting": "[3]", "result": "< 2 fold decrease in affinity vs CUGUGGA"}]}, {"molecule": "CUGUGGU (ssRNA)", "values": [{"measurement": "binding signal", "setting": "[4]", "result": "~3 fold decrease in affinity vs CUGUGGA"}]}, {"molecule": "CUGAGGA (ssRNA)", "values": [{"measurement": "binding signal", "setting": "[3]", "result": "< 2 fold decrease in affinity vs CUGUGGA"}]}, {"molecule": "CUGUGGA (ssRNA)", "values": [{"measurement": "binding result", "setting": "[5]", "result": "binds"}, {"measurement": "binding result", "setting": "[6]", "result": "binds"}]}, {"molecule": "CUAUGGA (ssRNA)", "values": [{"measurement": "binding signal", "setting": "[3]", "result": "~5 fold decrease in affinity vs CUGUGGA"}]}, {"molecule": "CCCAC (ssRNA)", "values": [{"measurement": "Kd", "setting": "[7]", "result": "~7", "unit": "µM"}]}, {"molecule": "UGUGGA (ssRNA)", "values": [{"measurement": "binding signal", "setting": "[3]", "result": "~2 fold decrease in affinity vs CUGUGGA"}]}, {"molecule": "UAAUA (ssRNA)", "values": [{"measurement": "binding result", "setting": "[7]", "result": "no binding"}]}]}
